Where a chain is given by its changes, count along the chain named. Numbers in names are those of the source. Where “and” joins values, the source holds several entries; their conditions need not be identical. Identical values can stand only once.

The target in data set [1] is ΔStammer-ORF1p (human). Nature of the data set: mass photometry; purified ORF1p alone, landing on a glass coverslip; 300 nM ORF1p in 20 mM Hepes pH 7.5, 50 mM KCl, 1 mM MgCl2, 1 mM DTT; also a protein concentration series, a KCl series and 150 mM KCl; monomers to trimers, trimers to hexamers and higher-order oligomers.
Data set [2] concerns the molecule itself. Described as above.
The target in data set [3] is K3A/K4A-ORF1p (Homo sapiens, UniProt Q9UN81 1-338, K3A;K4A). Nature of the data set: fluorescence anisotropy; 50 mM KCl; 20 mM Hepes pH 7.5, 50 mM KCl (150 or 300 mM in Fig. S1D rows), 1 mM MgCl2, 1 mM DTT; 1 nM 6-FAM oligo; temperature not stated. Conditions: protein: recombinant, tags: tag removed, N-terminal G left, chain copies: 3.
K3A/K4A-ORF1p, sequence (Q9UN81 other isoform, or with tags, fused parts or gaps K3A;K4A): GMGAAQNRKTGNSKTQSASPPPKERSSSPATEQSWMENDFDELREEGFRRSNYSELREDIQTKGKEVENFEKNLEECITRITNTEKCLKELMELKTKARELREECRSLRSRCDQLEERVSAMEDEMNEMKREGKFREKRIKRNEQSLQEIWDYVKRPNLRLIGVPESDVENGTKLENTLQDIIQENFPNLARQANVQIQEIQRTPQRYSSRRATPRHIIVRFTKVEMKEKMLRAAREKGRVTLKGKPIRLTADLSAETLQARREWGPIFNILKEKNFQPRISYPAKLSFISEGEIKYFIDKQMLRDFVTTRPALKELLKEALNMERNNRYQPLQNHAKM
Data set [4] concerns the target T1, His-TEV-ORF1p (Homo sapiens, UniProt Q9UN81 1-338).
T1 chain: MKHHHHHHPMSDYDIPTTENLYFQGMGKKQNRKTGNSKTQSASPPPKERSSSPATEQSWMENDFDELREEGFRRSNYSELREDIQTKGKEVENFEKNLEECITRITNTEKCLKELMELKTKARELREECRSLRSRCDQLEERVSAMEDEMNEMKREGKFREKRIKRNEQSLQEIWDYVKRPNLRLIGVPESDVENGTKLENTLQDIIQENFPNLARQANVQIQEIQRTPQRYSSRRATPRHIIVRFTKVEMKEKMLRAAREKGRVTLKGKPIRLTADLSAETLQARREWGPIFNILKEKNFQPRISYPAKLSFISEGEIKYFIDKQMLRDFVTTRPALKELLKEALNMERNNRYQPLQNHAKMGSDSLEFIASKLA
The data set is described as above. Conditions: protein: recombinant, tags: uncleaved N-terminal His-TEV, C-terminal ybbR, chain copies: 3.

Data set [5] concerns the target T2, ORF1p WT (Homo sapiens, UniProt Q9UN81 1-338). The data set is described as above. Conditions: protein: recombinant, tags: tag removed, N-terminal G left, chain copies: 3.
Data set [6] deals with ΔStammer-ORF1p (Homo sapiens, UniProt Q9UN81 1-338, del91-93). The data set is described as above. Conditions: protein: recombinant, tags: tag removed by TEV, N-terminal G left, chain copies: 3.
Data set [7] deals with T3, ORF1p WT (Homo sapiens, UniProt Q9UN81). Nature of the data set: mass photometry; second peak, two trimers per RNA; Anisotropy: 20 mM Hepes pH 7.5, 50 mM KCl, 1 mM MgCl2, 1 mM DTT, 1 nM 6-FAM oligo, temperature not stated; DNA curtains: 50, 150 or 300 mM KCl, RNP premix 1 min at room temperature. Conditions: protein: recombinant; tags: tag removed, N-terminal G left; chain copies: 3.

Data set [8] concerns the target T2, ORF1p WT. In words: fluorescence anisotropy; 300 mM KCl; 20 mM Hepes pH 7.5, 50 mM KCl (150 or 300 mM in Fig. S1D rows), 1 mM MgCl2, 1 mM DTT; 1 nM 6-FAM oligo; temperature not stated. Conditions: protein: recombinant; tags: tag removed, N-terminal G left; chain copies: 3; label: 5' 6-FAM (anisotropy); unstructured.
Data set [9] deals with T2, ORF1p WT. Nature of the data set: fluorescence anisotropy; 150 mM KCl; 20 mM Hepes pH 7.5, 50 mM KCl (150 or 300 mM in Fig. S1D rows), 1 mM MgCl2, 1 mM DTT; 1 nM 6-FAM oligo; temperature not stated. Conditions: protein: recombinant; tags: tag removed, N-terminal G left; chain copies: 3; label: 5' 6-FAM (anisotropy); unstructured.
Data set [10] addresses T3, ORF1p WT. Nature of the data set: mass photometry; two-trimer peak more prominent; Anisotropy: 20 mM Hepes pH 7.5, 50 mM KCl, 1 mM MgCl2, 1 mM DTT, 1 nM 6-FAM oligo, temperature not stated; DNA curtains: 50, 150 or 300 mM KCl, RNP premix 1 min at room temperature. Conditions: protein: recombinant; tags: tag removed, N-terminal G left; chain copies: 3.
Data set [11] concerns the target T3, ORF1p WT. Nature of the data set: mass photometry; one trimer per RNA; Anisotropy: 20 mM Hepes pH 7.5, 50 mM KCl, 1 mM MgCl2, 1 mM DTT, 1 nM 6-FAM oligo, temperature not stated; DNA curtains: 50, 150 or 300 mM KCl, RNP premix 1 min at room temperature. Conditions: protein: recombinant; tags: tag removed, N-terminal G left; chain copies: 3.
The mark [12] stands for this setting: label: 5' 6-FAM on strand 1 (anisotropy), blunt.
The mark [13] stands for this setting: label: 5' 6-FAM (anisotropy), unstructured.

In turn, ΔStammer-ORF1p (natural protein) displayed a stoichiometry N in data set [1] of 6.

B1: WT-ORF1p (LINE-1 ORF1 protein, Homo sapiens) (natural protein, human)
chain: GMGKKQNRKTGNSKTQSASPPPKERSSSPATEQSWMENDFDELREEGFRRSNYSELREDIQTKGKEVENFEKNLEECITRITNTEKCLKELMELKTKARELREECRSLRSRCDQLEERVSAMEDEMNEMKREGKFREKRIKRNEQSLQEIWDYVKRPNLRLIGVPESDVENGTKLENTLQDIIQENFPNLARQANVQIQEIQRTPQRYSSRRATPRHIIVRFTKVEMKEKMLRAAREKGRVTLKGKPIRLTADLSAETLQARREWGPIFNILKEKNFQPRISYPAKLSFISEGEIKYFIDKQMLRDFVTTRPALKELLKEALNMERNNRYQPLQNHAKM
notes: first printed residue of the construct, before the first methionine of ORF1p; left after TEV protease digestion; LINE-1 ORF1p, human, 338 residues as printed; also called pLH2087; source: E. coli BL21(DE3), purified as described previously (19); not shown: His6, N-terminal, cleaved
On to B1, for which, in data set [2], the “stoichiometry N” value was 6 and 3.

B2: K3A/K4A-ORF1p (natural protein, human)
chain: B1 chain with K4A, K5A
notes: first printed residue of the construct, before the first methionine of ORF1p; left after TEV protease digestion; LINE-1 ORF1p, human, with the N-terminal basic patch mutated; also called pLH2075; source: E. coli BL21(DE3), purified as described previously (19); not shown: His6, N-terminal, cleaved
As for B2, the binding result in [2] was “binds”.

B3: 30 bp dsDNA (dsDNA)
DNA 1: ACCATCATCAAAGACCAAAAGTAGATAAAA
DNA 2: TTTTATCTACTTTTGGTCTTTGATGATGGT
Consider B3, for which the Kd was 21.8 nM in data set [3] (setting [12]), 28.6 nM in data set [4] (setting [12]), 18.9 nM in data set [5] (setting [12]) and 26.6 nM in data set [6] (setting [12]).

B4: 90 nt RNA (ssRNA)
RNA: GGGCGAAUUGGGUACCGGGCCCCCCCUCGAGGCCGGUAGAGGUGUGGUCAAUAAGAGCGACCUCAUACUAUACCUGAGAAAGCAACCUGA
For B4, the binding result in data set [7] is given as “binds”.
For ACCATCATCAAAGACCAAAAGTAGATAAAA (ssDNA) [30 nt ssDNA], the Kd in [5] (label: 5' 6-FAM) was found to be 8.27 nM.
On the same count and under the same terms, the figure for AAAAAAAAAAAAAAAAAAAAAAAAAAAAAA (ssRNA) [30 nt poly(A)] is 6.01 nM.

B5: 30 bp RNA/DNA hybrid (DNA:RNA)
RNA: ACCAUCAUCAAAGACCAAAAGUAGAUAAAA
DNA: B3 DNA 2
Consider B5, for which the Kd in [5] (label: 5' 6-FAM on RNA, blunt) came to 4.68 nM.
On to ACCAUCAUCAAAGACCAAAAGUAGAUAAAA (ssRNA) [30 nt RNA], for which the Kd was 11.9 nM in data set [8]; 11.1 nM in data set [3] (setting [13]); 17.7 nM in data set [4] (setting [13]); 3.89 nM in data set [5] (setting [13]); 8.06 nM in data set [6] (setting [13]); 11.3 nM in [9].

B6: 120 nt RNA (ssRNA)
RNA: GGGCGAAUUGGGUACCGGGCCCCCCCUCGAGGCCGGUAGAGGUGUGGUCAAUAAGAGCGACCUCAUACUAUACCUGAGAAAGCAACCUGACCUACAGGAAAGAGUUACUCAAGAAUAAGA
On to B6, for which the binding result in data set [10] is “binds”.

B7: 60 nt RNA (ssRNA)
RNA: GGGCGAAUUGGGUACCGGGCCCCCCCUCGAGGCCGGUAGAGGUGUGGUCAAUAAGAGCGA
With B7, in [11], the binding result is reported as “binds”.

Values taken from PMC12047440, “LINE-1 ribonucleoprotein condensates bind DNA to enable nuclear entry during mitosis” (Science Advances, 2024).
